Article PMC7054990

Molecular target: ALIX BRO1 domain (human)
Assay: recruitment to supported lipid bilayers (time-lapse confocal fluorescence microscopy); supported bilayers DOPC:DOPE:PI:LBPA (4.99:2:1:2 mol) preincubated 40 min with 3.7 µM ALIX BRO1 domain or mutant, unbound protein removed, then 0.64 µM CHMP4B-488 for 25 min; ALIX buffer: 25 mM Hepes pH 7.4, 0.3 mM BAPTA, 0.3 mM NTA, 0.3 mM hydroxyethyl EDTA, 686 µM CaCl2 (20 µM free calcium)

Chain of ALIX BRO1 domain (human) (Q9WU78 1-359): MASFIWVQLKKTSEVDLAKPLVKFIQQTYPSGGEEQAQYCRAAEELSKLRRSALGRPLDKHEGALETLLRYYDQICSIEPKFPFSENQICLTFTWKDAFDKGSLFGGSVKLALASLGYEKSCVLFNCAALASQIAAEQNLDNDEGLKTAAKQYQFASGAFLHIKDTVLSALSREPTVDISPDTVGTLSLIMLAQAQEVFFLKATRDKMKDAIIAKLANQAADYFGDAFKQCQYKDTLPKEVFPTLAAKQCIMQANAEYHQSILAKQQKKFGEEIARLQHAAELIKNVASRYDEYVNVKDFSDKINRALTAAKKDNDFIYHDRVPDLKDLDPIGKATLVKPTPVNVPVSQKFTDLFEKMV

- apparent t1/2 of recruitment: 5 min
B1: Alexa Fluor 488 CHMP4B (natural protein)
chain: MSVFGKLFGAGGGKAGKGGPTPQEAIQRLRDTEEMLSKKQEFLEKKIEQELTAAKKHGTKNKRAALQALKRKKRYEKQLAQIDGTLSTIEFQREALENANTNTEVLKNMGYAAKAMKAAHDNMDIDKVDELMQDIADQQELAEEISTAISKPVGFGEEFDEDELMAELEELEQEELDKNLLEISGPETVPLPNVPSIALPSKPAKKKEEEDDDMKELENWAGSM
modifications: Alexa Fluor 488 (labelled with Alexa Fluor 488 tetrafluorophenyl ester, 1:2 protein:dye)
